Data on 125 sequences can be found in the supplement of paper PMC9112550, “Optimization of the antimicrobial peptide Bac7 by deep mutational scanning” (BMC Biology, 2022).

The test system of the data set is Escherichia coli TOP10. Description: shrunken log2 fold change of peptide-encoding DNA abundance (4.5 h post-induction vs induction); higher = less antimicrobial activity (less host growth inhibition). The conditions noted are these: time post-induction: 4.5 h; library: site-saturation at positions 5, 18, 19, 20.
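Note: peptides expressed intracellularly from a pBAD plasmid library in pooled LB shake-flask culture, induced with 0.3% L-arabinose, DNA abundance read by NGS, three biological replicates, DESeq2 with apeglm shrinkage.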

Regarding RRIRWRPPRLPRPRPRPTGDPRP, the “shrunken log2 fold change” value is 0.241.
Then RRIRRRPPRLPRPRPRPFSMPRP, with 0.0721; and RRIRARPPRLPRPRPRPNQQPRP, with 0.284.
As for RRIRTRPPRLPRPRPRPGLPPRP, the “shrunken log2 fold change” value stood at 0.189.
Take RRIRDRPPRLPRPRPRPMGKPRP: the “shrunken log2 fold change” value worked out at 3.67.
Then RRIRVRPPRLPRPRPRPRQCPRP, with 0.33; and RRIRIRPPRLPRPRPRPSFVPRP, with -0.509.
RRIRMRPPRLPRPRPRPWTCPRP: the “shrunken log2 fold change” value was -0.0398.
The value for RRIRPRPPRLPRPRPRPSKEPRP was -0.374; that for RRIRERPPRLPRPRPRPIFQPRP was -0.00561; that for RRIRKRPPRLPRPRPRPNEAPRP was -0.00686.
As to RRIRKRPPRLPRPRPRPIINPRP, the “shrunken log2 fold change” value stood at 0.172.
Then RRIRLRPPRLPRPRPRPLDIPRP, with -0.15; and RRIRKRPPRLPRPRPRPIDCPRP, with 0.0653; and RRIRNRPPRLPRPRPRPNCVPRP, with 0.393.
Consider RRIRFRPPRLPRPRPRPWISPRP, for which the “shrunken log2 fold change” value is -0.456.
Take RRIRIRPPRLPRPRPRPMRFPRP: the “shrunken log2 fold change” value was -0.0444.
Then RRIRWRPPRLPRPRPRPLGSPRP, with -0.0308.
As to RRIRHRPPRLPRPRPRPVNFPRP, the “shrunken log2 fold change” value was -0.636.
Then RRIRPRPPRLPRPRPRPREQPRP, with 0.00917.
In the case of RRIRHRPPRLPRPRPRPQDWPRP, the “shrunken log2 fold change” value turned out to be 0.0899.
For RRIRERPPRLPRPRPRPRLLPRP, the “shrunken log2 fold change” value is -0.335.
RRIRPRPPRLPRPRPRPKIMPRP: the “shrunken log2 fold change” value is -0.437.
The value for RRIRARPPRLPRPRPRPCRAPRP was 0.261; that for RRIRNRPPRLPRPRPRPPGTPRP was 0.241; that for RRIRERPPRLPRPRPRPEEAPRP was 0.353.
For RRIRVRPPRLPRPRPRPIILPRP, the “shrunken log2 fold change” value was -0.483.
In the case of RRIRLRPPRLPRPRPRPLLLPRP, the “shrunken log2 fold change” value was -0.00929.
RRIRLRPPRLPRPRPRPITHPRP: the “shrunken log2 fold change” value is -0.24.
The value for RRIRQRPPRLPRPRPRPDRWPRP was 0.37; that for RRIRFRPPRLPRPRPRPDTIPRP was -0.498.
Then RRIRYRPPRLPRPRPRPDKMPRP, with -0.0477; and RRIRIRPPRLPRPRPRPNPHPRP, with -0.581.
Then RRIRKRPPRLPRPRPRPNDCPRP, with -0.0159; and RRIRGRPPRLPRPRPRPPRIPRP, with 0.719.
For RRIRTRPPRLPRPRPRPWTNPRP, the “shrunken log2 fold change” value was -0.148.
Then RRIRTRPPRLPRPRPRPCYKPRP, with -0.06.
On to RRIRYRPPRLPRPRPRPSPSPRP, for which the “shrunken log2 fold change” value was -0.269.
Then RRIRFRPPRLPRPRPRPHNTPRP, with -0.796.
Then RRIRWRPPRLPRPRPRPGQIPRP, with -0.0275.
The value for RRIRGRPPRLPRPRPRPCEHPRP was 0.149; that for RRIRCRPPRLPRPRPRPKSDPRP was 0.0327; that for RRIRERPPRLPRPRPRPNALPRP was -0.247.
Regarding RRIRMRPPRLPRPRPRPRGCPRP, the “shrunken log2 fold change” value stood at 1.08.
For RRIRMRPPRLPRPRPRPHMCPRP, the “shrunken log2 fold change” value was 0.000241.
The value for RRIRWRPPRLPRPRPRPFQRPRP was 0.00938.
For the sequence RRIRPRPPRLPRPRPRPAYTPRP, the “shrunken log2 fold change” value was -0.116.
With RRIRARPPRLPRPRPRPPFAPRP, the “shrunken log2 fold change” value is 0.87.
Turning to RRIRDRPPRLPRPRPRPIKSPRP, the “shrunken log2 fold change” value is -0.236.
The value for RRIRCRPPRLPRPRPRPTPIPRP was 0.244; that for RRIRRRPPRLPRPRPRPTVFPRP was 0.721.
With RRIRSRPPRLPRPRPRPVFDPRP, the “shrunken log2 fold change” value stood at 0.106.
Take RRIRGRPPRLPRPRPRPETPPRP: the “shrunken log2 fold change” value was found to be 3.43.
Turning to RRIRKRPPRLPRPRPRPQTVPRP, the “shrunken log2 fold change” value was 0.0918.
Then RRIRHRPPRLPRPRPRPWPWPRP, with 0.199; and RRIRLRPPRLPRPRPRPSDYPRP, with -0.106; and RRIRFRPPRLPRPRPRPQWKPRP, with -0.0239.
Then RRIRNRPPRLPRPRPRPPCVPRP, with 0.0341; and RRIRERPPRLPRPRPRPTLHPRP, with -0.0201; and RRIRCRPPRLPRPRPRPCLTPRP, with -0.17.
For RRIRTRPPRLPRPRPRPYYVPRP, the “shrunken log2 fold change” value is -1.13.
As to RRIRQRPPRLPRPRPRPGNGPRP, the “shrunken log2 fold change” value was found to be 0.0197.
The value for RRIRQRPPRLPRPRPRPGDGPRP was 0.415; that for RRIRERPPRLPRPRPRPYLFPRP was -0.137.
For RRIRARPPRLPRPRPRPMSCPRP, the “shrunken log2 fold change” value is -0.114.
In the case of RRIRYRPPRLPRPRPRPFTHPRP, the “shrunken log2 fold change” value is -0.187.
The value for RRIRPRPPRLPRPRPRPHEWPRP was 0.278.
As for RRIRFRPPRLPRPRPRPSACPRP, the “shrunken log2 fold change” value was 0.0977.
Then RRIRERPPRLPRPRPRPVNKPRP, with -0.31; and RRIRQRPPRLPRPRPRPRNWPRP, with -0.0692.
The value for RRIRNRPPRLPRPRPRPACIPRP was 0.0248; that for RRIRMRPPRLPRPRPRPHANPRP was 0.0143.
Then RRIRSRPPRLPRPRPRPPINPRP, with -0.32; and RRIRCRPPRLPRPRPRPWHWPRP, with 0.0135.
For RRIRVRPPRLPRPRPRPRQHPRP, the “shrunken log2 fold change” value was 0.174.
The value for RRIRARPPRLPRPRPRPIYSPRP was -0.227.
Then RRIRNRPPRLPRPRPRPYNKPRP, with -0.963; and RRIRMRPPRLPRPRPRPSIDPRP, with 0.789.
Then RRIRERPPRLPRPRPRPYVPPRP, with -0.0961; and RRIRGRPPRLPRPRPRPRDGPRP, with 1.27; and RRIRPRPPRLPRPRPRPPTVPRP, with 0.279.
RRIRHRPPRLPRPRPRPPRVPRP: the “shrunken log2 fold change” value is 0.356.
With RRIRMRPPRLPRPRPRPQTPPRP, the “shrunken log2 fold change” value is 2.18.
In the case of RRIRQRPPRLPRPRPRPLKEPRP, the “shrunken log2 fold change” value is -0.0182.
Take RRIRLRPPRLPRPRPRPVDTPRP: the “shrunken log2 fold change” value is -0.142.
Then RRIRFRPPRLPRPRPRPIRHPRP, with -0.355; and RRIRCRPPRLPRPRPRPIEPPRP, with 0.159; and RRIRWRPPRLPRPRPRPIWCPRP, with 0.151.
Take RRIRNRPPRLPRPRPRPVPHPRP: the “shrunken log2 fold change” value was -0.0692.
For RRIRYRPPRLPRPRPRPLNNPRP, the “shrunken log2 fold change” value was -1.29.
The value for RRIRQRPPRLPRPRPRPWRIPRP was -0.416; that for RRIRWRPPRLPRPRPRPWNQPRP was -0.067; that for RRIRRRPPRLPRPRPRPMKNPRP was 0.298.
Take RRIRLRPPRLPRPRPRPKMFPRP: the “shrunken log2 fold change” value is 0.0156.
Then RRIRWRPPRLPRPRPRPPVGPRP, with 0.167; and RRIRKRPPRLPRPRPRPGLQPRP, with -0.00225.
RRIRSRPPRLPRPRPRPPFDPRP: the “shrunken log2 fold change” value is 0.244.
The value for RRIRCRPPRLPRPRPRPIKIPRP was -0.436.
Then RRIRDRPPRLPRPRPRPITPPRP, with -0.117; and RRIRKRPPRLPRPRPRPIQNPRP, with 0.151.
The value for RRIRLRPPRLPRPRPRPRNMPRP was -0.0899; that for RRIRARPPRLPRPRPRPGRWPRP was 0.609.
In the case of RRIRMRPPRLPRPRPRPNCLPRP, the “shrunken log2 fold change” value was -0.00154.
With RRIRYRPPRLPRPRPRPSPHPRP, the “shrunken log2 fold change” value was -0.49.
For the sequence RRIRDRPPRLPRPRPRPPSTPRP, the “shrunken log2 fold change” value was -0.0415.
Then RRIRWRPPRLPRPRPRPEHHPRP, with -0.0625.
With RRIRLRPPRLPRPRPRPITIPRP, the “shrunken log2 fold change” value stood at 0.0213.
Turning to RRIRRRPPRLPRPRPRPPQQPRP, the “shrunken log2 fold change” value came out at 0.951.
RRIRGRPPRLPRPRPRPDPSPRP: the “shrunken log2 fold change” value was found to be 0.414.
Take RRIRKRPPRLPRPRPRPMWHPRP: the “shrunken log2 fold change” value is -0.183.
Take RRIRHRPPRLPRPRPRPTCQPRP: the “shrunken log2 fold change” value is -0.044.
Then RRIRTRPPRLPRPRPRPVTIPRP, with -0.0419; and RRIRHRPPRLPRPRPRPWILPRP, with -0.223; and RRIRSRPPRLPRPRPRPYEKPRP, with -1.08.
The value for RRIRVRPPRLPRPRPRPNQDPRP was -0.116.
The value for RRIRQRPPRLPRPRPRPFPIPRP was -0.0231; that for RRIRPRPPRLPRPRPRPGFTPRP was -0.139.
Turning to RRIRTRPPRLPRPRPRPVGDPRP, the “shrunken log2 fold change” value was found to be 0.21.
On to RRIRVRPPRLPRPRPRPPGRPRP, for which the “shrunken log2 fold change” value was determined as 0.593.
The value for RRIRARPPRLPRPRPRPTDYPRP was -0.0499; that for RRIRTRPPRLPRPRPRPRQQPRP was 0.349; that for RRIRIRPPRLPRPRPRPNLEPRP was -0.114.
Then RRIRERPPRLPRPRPRPTLTPRP, with -0.0194; and RRIRSRPPRLPRPRPRPTCDPRP, with 0.109.
For the sequence RRIRLRPPRLPRPRPRPQERPRP, the “shrunken log2 fold change” value was -0.839.
